Measurements taken from the supplement of paper PMC10567573.

B1: ZNF8 (parent)
chain: RIHTGERPYMCKECGKAFSQNSSL
B2: CLCN6 (parent)
chain: TGLVGLFVDFFVRLFTQLKFGVVQ

Variants of: B1
Experiment: protein stability index of a GFP-peptide fusion (GPS, HEK-293T) (PSI 1-6); higher = more stable
Conditions: c terminus: a fixed tail appended
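Further: lentivirally expressed fusions sorted by FACS into six bins by GFP to DsRed ratio, PSI derived from sequencing read proportions per bin multiplied by bin number.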

Protein stability index: each site, then its substitutions
S22: M 2.22 | N 2.37 | P 2.6 | Q 2.58 | R 2.19 | T 2.34 | V 1.9 | W 2.22 | Y 1.8
S23: A 2.26 | C 2.75 | D 2.8 | E 2.88 | F 1.77 | G 2.3 | H 2.9 | I 2.02 | K 3.26 | L 1.77 | M 1.98 | N 2.44 | P 2.48 | Q 2.58 | R 1.66 | T 2.27 | V 2.24 | W 1.94 | Y 2.03
L24: A 2.99 | C 3.17 | D 3.56 | E 3.68 | F 2.48 | G 2.8 | H 3.02 | I 2.74 | K 3.29 | M 2.7 | N 3.37 | P 3.18 | Q 3.21 | R 2.55 | S 3.55 | T 3.43 | V 2.6 | W 2.73 | Y 2.18

Variants of: B2
Experiment: as above
Conditions: c terminus: a fixed tail appended

Protein stability index, by site and new letter:
T1: A 1.84 | C 2.14 | D 2.39 | E 1.92 | F 2.1 | G 2.12 | H 2.01 | I 1.56 | K 2.83 | L 1.68 | M 1.99 | N 1.8 | P 2.59 | Q 2.17 | R 3.29 | S 2.6 | V 1.7 | W 1.73 | Y 2.82
G2: C 2.77 | D 1.64 | E 1.67 | F 3.79 | H 2.34 | I 2.36 | K 2.53 | L 3.27 | M 2.66 | N 1.84 | P 1.67 | Q 1.73 | R 2.78 | S 1.96 | T 1.81 | W 2.22 | Y 2.9
L3: A 2.15 | C 2.42 | D 2.07 | E 3.71 | F 2.71 | G 1.4 | H 2.25 | I 2.36 | K 3.14 | M 2.73 | N 2.11 | P 2.45 | Q 1.49 | R 2.52 | S 2.05 | T 1.65 | V 2.42 | W 3.37 | Y 2.63
V4: A 1.97 | C 2.36 | D 4.33 | F 2.93 | G 1.66 | H 2.28 | I 2.56 | K 2.16 | L 2.33 | M 2.49 | N 2.39 | P 2.05 | Q 2.79 | R 2.19 | S 2.63 | T 2.38 | W 3.63 | Y 2.07
G5: A 2.19 | C 2.42 | D 2.47 | E 1.78 | F 1.72 | H 2.16 | K 3.25 | M 2.48 | N 2 | P 2.71 | Q 2.21 | R 2.69 | S 2.21 | T 1.34 | W 1.86 | Y 2.08
L6: A 2.77 | C 2.69 | D 2.33 | E 2.25 | F 2.4 | G 3.36 | H 3.06 | I 2.83 | K 2.44 | M 2.93 | N 2.76 | P 2.65 | Q 3.53 | R 3.73 | S 2.99 | T 2.71 | V 2.15 | W 3.31 | Y 3.19
F7: A 2.38 | C 2.89 | D 3.18 | E 4.32 | G 1.73 | H 2.44 | I 2.57 | K 1.78 | L 2.77 | M 2.56 | N 1.84 | P 2.28
